Experiment [1] concerns the target nTRIP6 fused to the C-terminal half of Venus (VC). Put plainly: split reporter (BiFC, NanoBiT); Venus BiFC: VN and VC fusions co-transfected into C2C12 myoblasts with mCherry as transfection control; confocal imaging 24 h after transfection; cells with Venus complementation counted as percent of mCherry-positive cells (mean ± SD, three experiments); for Fig. 6a cells were first transfected with Trip6 siRNA or control siRNA. The settings on record: scale: %.

Experiment [2] concerns the target MEF2C fused to the C-terminal half of Venus (VC) (UniProt Q8CFN5). The description is as above.
UniProt Q8CFN5, sequence (Q8CFN5 whole entry, the tested form may be a part): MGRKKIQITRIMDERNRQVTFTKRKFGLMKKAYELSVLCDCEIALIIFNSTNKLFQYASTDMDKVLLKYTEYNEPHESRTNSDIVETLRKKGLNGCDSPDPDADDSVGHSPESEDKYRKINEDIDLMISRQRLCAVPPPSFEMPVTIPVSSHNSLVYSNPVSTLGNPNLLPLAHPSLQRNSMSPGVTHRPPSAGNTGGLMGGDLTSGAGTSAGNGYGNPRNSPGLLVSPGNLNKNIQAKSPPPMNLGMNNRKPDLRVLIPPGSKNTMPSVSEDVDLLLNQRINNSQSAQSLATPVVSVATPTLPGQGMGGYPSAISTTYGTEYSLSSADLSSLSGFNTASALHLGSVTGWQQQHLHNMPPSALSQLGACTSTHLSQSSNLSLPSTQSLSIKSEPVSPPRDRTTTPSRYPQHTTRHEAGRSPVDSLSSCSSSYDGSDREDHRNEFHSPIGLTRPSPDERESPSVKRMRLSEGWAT

“HDAC5-Flag fused to the N-terminal half of Venus (VN) (from UniProt Q9UQL6 1-1122) (enzyme)”: the percent of transfected cells with Venus complementation in experiment [1] is 79.5.

In turn, “nTRIP6 (nuclear isoform of TRIP6) fused to the N-terminal half of Venus (VN) (natural protein)” displayed a percent of transfected cells with Venus complementation in experiment [2] of 70.6%. On the same count and under the same terms, under “nTRIP6 lacking the LIM domains (pre-LIM) fused to VN (domain or fragment)” stands 65.5%.

The record behind these values is PMC4904203.
